# Molecular target: HCMV glycoprotein H (gH) on TB40 virus (Human Cytomegalovirus (HCMV), TB40 virus)
# Assay: cell-based or functional assay
substance,measurement,value
mAb MSL-109 (antibody),"IC50 (µg/ml), HCMV TB40 neutralization on ARPE-19 epithelial cells",0.89 µg/mL
same,"IC50 (µg/ml), HCMV TB40 neutralization on MRC-5 fibroblasts",0.46 µg/mL
